From patent US20240026407A1, “MODIFICATION OF SAPONINS” (GLAXOSMITHKLINE BIOLOGICALS SA, priority 2020, published 2024)

Key:
Assay type in all cases: biochemical, Quillaja saponaria
[1] = Experiment 4-3: screening of glucosidases for deglycosylation with QS-18 in crude bark extract (1 in 2000 dilution) at pH 7 and 30 deg C; details: CBE 1 in 2000 dilution, pH 7, 30 degC, 1 h; % conversion of QS-18 by LCMS/MS
[2] = Experiment 5-2: screening of additional glucosidases for deglycosylation with QS-18 in crude bark extract (80%) at pH 6 and 35 deg C; details: CBE 80%, pH 6, 35 deg C, 18 hours; UV HPLC
Method in brief: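 Deglycosylation of QS-18 was monitored by UV HPLC after MeCN/AcOH quench with hexanophenone. The reaction ran 18 hours at 35 deg C, shaking, combining clarified pH 6 lysate with crude bark extract neutralised to pH 6 by NaOH.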

[3] = Experiment 4-1: screening of glucosidases for deglycosylation with purified QS-18 (0.04 mg/ml) at pH 7.5 and room temperature; details: pH 7.5, room temperature, 20 h, clarified E. coli lysate, QS-18 2150 to QS-21 1988 by LCMS/MS
Method in brief: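 Deglycosylation measured by LC-MS/MS as % conversion after 20 h room-temperature incubation of QS-18 phenyl fraction (0.04 mg/ml final) with polymyxin B/lysozyme lysates, pH 7.5 phosphate, of E. coli BL21(DE3) expressing each enzyme; MeCN quench. Positives exceeded negative control by >3 S.D.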

[4] = Experiment 5-1: screening of additional glucosidases for deglycosylation with purified QS-18 (0.04 mg/ml) at pH 7.5 and 30 deg C; details: pH 7.5, 30 degrees C, 18 hours, LCMS/MS
Experimental: The 94 additional genes, together with positive control (DNA encoding SEQ ID No. 262) and negative control, were transformed, expressed, lysed and reacted in the same manner as described above for Experiment 4-1, except the reaction was incubated at 30 degrees C. for 18 hours.
Samples were analysed by LCMS/MS according to the procedure in Experiment 4-1.

[5] = Experiment 5-3: screening of additional glucosidases for deglycosylation with QS-18 in treated bark extract (80%) at pH 6 and 35 deg C; details: TBE 80% (QS-21 approx. 4 g/L), pH 6, 35 deg C; UV HPLC
Experimental: Experiment 5-1 was repeated, replacing CBE with Treated Bark Extract (TBE) at pH 6. TBE was prepared from CBE by PVPP treatment and concentration, to provide TBE with a QS-21 concentration of approximately 4 g/L. TBE was adjusted to pH 6 by dropwise addition of 2M NaOH with stirring.

[6] = Experiment 4-4: screening of glucosidases for deglycosylation of QS-18 in crude bark extract (1 in 20 dilution) to QS-21; details: CBE 1 in 20 dilution, pH 6, 25 degC, 18 hours; % conversion of Middle Peak by UV HPLC
Method in brief: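 Clarified glucosidase lysates were incubated with pH 6 crude bark extract (1 in 20) in potassium phosphate buffer pH 6 for 18 h at 25 °C with shaking, then quenched with MeCN. UV HPLC with MS/MS-supported peak identity; activity is % conversion of the extract's Middle Peak (QS-18 family) toward the QS-21 peak.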

[7] = Experiment 4-2: screening of glucosidases for deglycosylation with purified QS-18 (1 mg/ml) at pH 6 and 30 deg C; details: pH 6, 30 degC, 18 hrs, clarified lysate, LCMS/MS
Method in brief: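 Enzyme activity derived from LC-MS/MS analysis after MeCN quench. Substrate QS-18 (1 mg/ml final) was exposed overnight (18 h, 30 °C, pH 6 phosphate buffer) to clarified lysates containing candidate glucosidases.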

B1: 262 (protein, listed as Modestobacter marinus)
chain: MNPASSTRTDTMTDTTARTDSRLTDALAALSLEQKVQLLTGRDFWNTWPIEEIGLRRILVSDGPSGVRGEVWDERDPSLNLPSATALASAWDPDIARRYGAAAAVEARRKGVDVVLGPTINLHRSPLGGRHFEAFSEDPVLTAELAAAYVTGVQDNGVGATPKHYVANDFETDRFTVDVRADERTLRELYLLAFEKAVTEARAWLVMSAYNGINGATATENDLLETPLNSEWGFDGVVVSDWTAVRSLESARSSQDLVMPGPVGPWGDALVEAVRTGAIDESVVDRKVLRILTLAQRVGALEGSPAIDPVWVEDGVALAREAAVEGTVLLENRDELPWDATSLRKVAVIGNNAAAARTQGGGSATVLPEYTVSPLDGVRAALPDAEVSYSLGAVVQDGLVELPLAELTNPVTGGPGLRARFLTADGAELFGEDRRKSVLVYFGGDAPIAAAATYELTARWTPTESQTVRLGFALIGAAQLYVDGELLVESDLQPSGTDLGAAFMNPLTASAEVELVAGKPVDVRLVHDLSAKEGFAAHALFLQLGTEPAEVDEDALIAEAAEAAEAADVVLVVVGTNSIVESEGYDRESLSLPGRQDDLVRAVVAANPRTVVLVNAGAPVLLPWRDDVAALLLGWFGGQEFGNAVADVLLGVAEPGGRLPTTWPAAEADVPVLSCTPVDGVVEYTEGIHIGYRAWLRSGATPAYWFGSGQGYTCVELTGVEAPSRARPGEIVTVSVEVANRGERDGKQVVQVYAEKPDSTVDRPVRWLVGSAPVRVPAGQTAQVEVAVPTRYLAHWAGGWQYEPGVYRLRVGTTAVELPLETTLEVSA
Question: Which “Expt 4-3 % conv” value [1] does the source give for B1 here?
Answer: 99.7%

Question: And the “Experiment 5-2 % conv” value [2]?
Answer: 5.5%

Question: And the “Expt 4-1 % conv” value [3]?
Answer: 99.5%

Question: And the “Experiment 5-1 % conv” value [4]?
Answer: 98.7%

Question: What about the “Experiment 5-3 % conv” value [5] of the same molecule?
Answer: 8.5%

Question: And the “Expt 4-4 % conv” value [6]?
Answer: 68.6%

Question: What about the “Expt 4-2 % conv” value [7] of the same molecule?
Answer: 97.9%

B2: 208 (protein, listed as Anaerolinea thermophila)
chain: MNVHNQDTIEQKISELLSQMTLSEKVSLLSGKDAWRTMPIPRLGIPSITMTDGPHGVRSSYPEAGRKAGPTTCFPTGVSMAATWNTALIEKVGMALAEETRAMDCDILLGPCVNIVRHPLAGRNFESYSEDPYLNGKMGVAWVKGLQSKKVGASLKHFAANNQEFERHRGSSELDERTLREIYLPHFEMVVKEAKPFTVMCAYNRINGVYASQNRHLLREILKEEWGFDGVVVSDWGANHTIFESVENGLDLEMPGPARYYGKLLEDAVHNWQIDEKVIDDAVRRILRILFRAGKFDDPATLPPGSVNTPEHQALALEVAEEAITLLKNEADLLPLDIEKIRTLAVIGPNAAEDRIGGGGSSYVDPPYRVSPLEALRARFGDKIQIEYEKGCDNYHQPPVLGADWLGVNGLKVDFFDNPALQGQPAGTISIPKAEMWMWANSLPASKITSPRFSLRASGSFTPLESGNFTFFLVNTSTCRVFINGNKVFENTSKPKEHRAESEVQFQTTLEEGKSYDLVIEYLKDNDEEFAFWKLACMRVFGPGEDNRIQKAAELAAKSDVALVFIGMPEGFESEGYDRPDMRLPGPQDELVRAVLKANPRTVVILNAGSPVEMPWAEDVPAILEAYYPGQEGGNAVAKILFGEINPSGKLTVTFPRRLEDTPAYINYPGDRKVYYGEGIFVGYRYYEKKKVSPLFPFGHGLSYTTFEYENLTLPSEVNIGESVKVQVTVKNTGKRAGKEVVQLYVGDPESSLVRPPKELKGFAKVELQPGESKTVSFELDERAFAFYDPYQSRWVVEPGEFQILVGSSSQDIRASAVLRMA
Question: For B2, which “Expt 4-3 % conv” value [1] is on record?
Answer: 26.0%

Question: And the “Expt 4-1 % conv” value [3]?
Answer: 100.0%

Question: What about the “Expt 4-4 % conv” value [6] of the same molecule?
Answer: <3%

Question: What about the “Expt 4-2 % conv” value [7] of the same molecule?
Answer: 94.0%

B3: 250 (protein, listed as Modestobacter marinus)
chain: MTATTPSDPTALPLEQKVRLLSGQDFWSTPAVAEAGLSSVVLTDGPHGVRRQQGEFDQIGLLESVPATCFPPAVAVGSSWDPEVAERIGAAVGVEARAIGVPVVLGPGVNIKRSPLCGRNFEYYSEDPLLAGVLGAAHVRGQQGEGVGASVKHFAANNQETQRMQVSADVDERTLREVYLPAFERVVTESRPATVMCAYNKVNGVYASQHRWLLTEVLREEWGFRGAVVSDWGAVDDRVAALEAGLDLQMPGDSGAGNALVVEAVRAGVLDEAVVDRSVRRVAALAGLVAEPTAGFDVEAHHALARELAAGCAVLLKNDGGTLPLTAGTRITVVGEFARTPRFQGGGSSHVNATRVDDALTALQGAVEVTFAPGFTLDGSGDAAALREEAVAAARGAEVTVVFAGLAEADESEGFDRTTLDLPAGQVDLIRAVAAVSLRTVVVLSSGSVVSLEGWHDDVDAVLAGFLLGQAGGGALADLLTGAVDPSGRLAETIPLRLQDTPSYLTFPGEQGHARYGEGVMVGYRHYETAEQPVRYPFGHGLSYTSFATTDLQVRTRGADGATATVTVTNTGERAGRHVVQVYVATAAGPVRRPARELRAFTKVSLAAGESATVAFELDRRAFAYWDVREHDWVVAPGEYSVQIGASAADVLDQRTVTLAGDDLVPELTLQSSVAEWFAHPVAGPQLLAGFVAAMPDGAAEMHEGMLQMIGSMPMRRFAADFGSAVPAAELDRLMAAARAAR
Question: Which results are given for B3?
Answer: Expt 4-3 % conv [1]: 2.6%; Expt 4-1 % conv [3]: 88.5%; Expt 4-4 % conv [6]: <3%; Expt 4-2 % conv [7]: 36.0%
